Where two headings read alike, the source gives them in different places.
T1: GST-CDKACTH1 labelled with Cy3 (CDKACTH1-Cy3)
T1 chain: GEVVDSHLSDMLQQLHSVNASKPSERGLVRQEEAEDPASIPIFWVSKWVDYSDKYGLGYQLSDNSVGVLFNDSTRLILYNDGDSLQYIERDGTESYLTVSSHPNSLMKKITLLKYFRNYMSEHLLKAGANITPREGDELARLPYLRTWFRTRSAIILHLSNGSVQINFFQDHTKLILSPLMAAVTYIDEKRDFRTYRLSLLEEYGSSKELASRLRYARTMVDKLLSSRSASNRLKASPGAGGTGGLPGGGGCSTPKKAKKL


Tests used:
[1] = biological target: T1, GST-CDKACTH1 labelled with Cy3 …
[2] = test system: GST-CDKACTH1 labelled with Cy3 (CDKACTH1-Cy3); remark: listed apart in the source

Protein	real-time fluorescence kinase assay (Cy3 fluorescence) [1]	real-time fluorescence kinase assay (Cy3 fluorescence) [2]
Plk3 kinase (protein) MEPAAGFLSPRPFQRAAAAPAPPAGPGPPPSALRGPELEMLAGLPTSDPGRLITDPRSGRTYLKGRLLGKGGFARCYEATDTETGSAYAVKVIPQSRVAKPHQREKILNEIELHRDLQHRHIVRFSHHFEDADNIYIFLELCSRKSLAHIWKARHTLLEPEVRYYLRQILSGLKYLHQRGILHRDLKLGNFFITENMELKVGDFGLAARLEPPEQRKKTICGTPNYVAPEVLLRQGHGPEADVWSLGCVMYTLLCGSPPFETADLKETYRCIKQVHYTLPASLSLPARQLLAAILRASPRDRPSIDQILRHDFFTKGYTPDRLPISSCVTVPDLTPPNPARSLFAKVTKSLFGRKKKSKNHAQERDEVSGLVSGLMRTSVGHQDARPEAPAASGPAPVSLVETAPEDSSPRGTLASSGDGFEEGLTVATVVESALCALRNCIAFMPPAEQNPAPLAQPEPLVWVSKWVDYSNKFGFGYQLSSRRVAVLFNDGTHMALSANRKTVHYNPTSTKHFSFSVGAVPRALQPQLGILRYFASYMEQHLMKGGDLPSVEEVEVPAPPLLLQWVKTDQALLMLFSDGTVQVNFYGDHTKLILSGWEPLLVTFVARNRSACTYLASHLRQLGCSPDLRQRLRYALRLLRDRSPA	Plk1 or Plk3 did not induce any significant changes in the fluorescence of CDKACTH1, in the same range of concentrations	–
recombinant CDK4/Cyclin D (enzyme, part only; not given: Cyclin D partner) MATSRYEPVAEIGVGAYGTVYKARDPHSGHFVALKSVRVPNGGGGGGGLPISTVREVALLRRLEAFEHPNVVRLMDVCATSRTDREIKVTLVFEHVDQDLRTYLDKAPPPGLPAETIKDLMRQFLRGLDFLHANCIVHRDLKPENILVTSGGTVKLADFGLARIYSYQMALTPVVVTLWYRAPEVLLQSTYATPVDMWSVGCIFAEMFRRKPLFCGNSEADQLGKIFDLIGLPPEDDWPRDVSLPRGAFPPRGPRPVQSVVPEMEESGAQLLLEMLTFNPHKRISAFRALQHSYLHKDEGNPE	–	CDK4/Cyclin D kinase induced changes in CDKACTH1 fluorescence reminiscent of CDK2/Cyclin A

— patent US20150355179
